Data set [1] addresses T1, Angiopoietin-2 (Ang2) (Homo sapiens) (UniProt O15123).
T1 sequence: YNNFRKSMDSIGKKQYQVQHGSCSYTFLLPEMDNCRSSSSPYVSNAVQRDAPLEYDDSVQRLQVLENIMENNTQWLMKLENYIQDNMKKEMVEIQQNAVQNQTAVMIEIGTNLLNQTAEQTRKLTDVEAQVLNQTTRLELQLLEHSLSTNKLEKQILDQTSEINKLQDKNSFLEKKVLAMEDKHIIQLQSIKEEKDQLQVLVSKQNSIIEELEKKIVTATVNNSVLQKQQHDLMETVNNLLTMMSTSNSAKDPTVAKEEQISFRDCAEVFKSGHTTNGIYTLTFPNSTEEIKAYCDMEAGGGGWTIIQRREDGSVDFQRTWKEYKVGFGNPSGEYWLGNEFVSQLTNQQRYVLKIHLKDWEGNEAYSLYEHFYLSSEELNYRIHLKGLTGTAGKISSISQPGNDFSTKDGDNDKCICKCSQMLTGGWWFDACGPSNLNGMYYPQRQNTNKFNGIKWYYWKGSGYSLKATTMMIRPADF
In words: flow. The conditions noted are these: 2'-F.

Data set [2] concerns T2, VEGF-165 (VEGF-A) (Homo sapiens).
T2 sequence: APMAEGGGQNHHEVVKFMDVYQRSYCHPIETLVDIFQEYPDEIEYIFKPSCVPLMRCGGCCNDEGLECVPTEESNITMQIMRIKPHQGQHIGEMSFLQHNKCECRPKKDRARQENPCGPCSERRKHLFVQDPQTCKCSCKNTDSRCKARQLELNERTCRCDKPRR
Put plainly: flow. The conditions noted are these: 2'-F.

Setting [3] is: hexaethylene glycol (H) linker replacing UUUUA after UGCAUGCA
[4] abbreviates: OO linker replacing UUUUA after UGCAUGCA
The mark [5] stands for this setting: OOOO linker replacing UUUUA after UGCAUGCA
Where [6] appears, read: internal hexaethylene glycol (H) linker in Ang2 part.

This note sets out measurements from patent publication US20230095004.

pKd: −log10 of the molar value.

As usually defined, the pKd is the negative decadic logarithm of the Kd, by convention in mol/L.

With “UGCAUGCACCAGUGAGUCGGAUCUCCGCAUAGAUAAGCCAACAAACGUACAUUCUCUGUUAGUAUUUUCUGCG [AMSB107.22]”, the pKd in data set [1] (setting [3]) was 10.01; in data set [2] (setting [3]), 10.26.
On to “UGCAUGCACCAGUGAGUCGGAUCUCCGCAUAGAUAAGCCAACAAACGUACAUUCUCUGUUAGUAUUUUCUGCG [AMSB107.26]”, for which the pKd in data set [1] (setting [4]) is 10.12; in data set [2] (setting [4]) it was 10.25.
As to “UGCAUGCACCAGUGAGUCGGAUCUCCGCAUAGAUAAGCCAACAAACGUACAUUCUCUGUUAGUAUUUUCUGCG [AMSB107.27]”, the results for the pKd in data set [1] (setting [5]) and in data set [2] (setting [5]) were 10.10 and 10.23, respectively.
Regarding “UGCAUGCAUUUUACCAGUGAGUCGGAUCUCCGCAUAGAUAAGCCAACAAACGUACAUUCUCUGUUAGUAUUUUCUGCG [AMSB107.23]”, the pKd in data set [1] (5' hexaethylene glycol (H)) was 10.08; in data set [2] (5' hexaethylene glycol (H)), 10.31.
In the case of “UGCAUGCAUUUUACCAGUGAGUCGGAUCUCCGCAUAGAUAAGCCAACAAACGUUCUCUGUUAGUAUUUUCUGCG [AMSB107.25]”, the pKd in data set [1] (setting [6]) was 8.85; in data set [2] (setting [6]), 9.65.
The matching figures for “UGCAUGCAUUUUACCAGUGAGUCGGAUCUCCGCAUAGAUAAGCCAACAAAUUCUCUGUUAGUAUUUUCUGCG [AMSB107.24]”: 8.75 and 9.68.
